Assay: soluble on expression in E. coli; label from the status in PepcDB or PDB records
In the case of “MGHHHHHHSHMADVEDGEETCALASHSGSSGSKSGGDKMFSLKKWNAVAMWSWDVECDTCAICRVQVMDACLRCQAENKQEDCVVVWGECNHSFHNCCMSLWVKQNNRCPLCQQDWVVQRIGK”, the “soluble on expression in E. coli” value is reported as “not soluble”. With “MGHHHHHHSHMAYEISKKVLHIVGKTNATYKLIEEGDKILLGLSGGKDSIMLACILARMQKHAPFKFDFKAVTVHYGLGEDLKWLSDLCQEQGIEHEIIYTQIAATINEKRREKSSFCSFCSRLRRGTLYSKALEEGYNKVAIAHHLDDAVESFFMNFTYNGSLRSMPPIYRAENGLLVIRPLIKVREASSIHFVTSQNIPVAPDCNCPAKQPTSDKPPIARLATKNFLKEMQNLHPRFFDSLENAFNNVQANSFSDAKYLDA” the “soluble on expression in E. coli” value was “not soluble”. In the case of “MGHHHHHHSHMAYNKEEKIKSLNRMQYEVTQNNGTEPPFQNEYWDHKEEGLYVDIVSGKPLFTSKDKFDSQCGWPSFTKPIEEEVEEKLDTSHGMIRTEVRSRTADSHLGHVFNDGPGPNGLRYCINSAALRFVPKHKLKEEGYESYLHLFNK”, the “soluble on expression in E. coli” value is reported as “soluble”. For “MGHHHHHHSHMCVARVYHGWLFEGLGRDKAEELLQLPDTKVGSFMIRESETKKGFYSLSVRHRQVKHYRIFRLPNNWYYISPRLTFQCLEDLVNHYSEVADGLCCVLTTPCLTQSTAAPAVRASSSPVTLRQKTVDWRRVSRLQEDPEGTENPLGVDESLFSYGLRESIASYLSLTSEDNTSFDRKKKSISLMYGGSKRKSSFFSSPPYFED”, the “soluble on expression in E. coli” value was “soluble”. For “MGHHHHHHSHMDELVHDLASALEQTSEQNKLGELWEEMALSPRQQRRQLRKRRGRKRRSDFTHLAEHTCCYSEASESSLDEATKDCREVAPVTNFSDSDDTMVAKRHPALNAIVKSKQHSWHESDSFTENAPCRPLRRRRKVKRVTSEVAASLQQKLKVSDWSYERGCRFKSAKKQRLSRWKENTPWTSSGHGLCESAENRTFLSKTGRKERMECETDEQKQGSDENMSEW”, the “soluble on expression in E. coli” value was “not soluble”. For “MGHHHHHHSHMEALARLHLTVTRAYKVNTDINFEVFIHKVDGLSDDHKIETQRDIHQRANDDLADAGLEKIHLSFYLTSIYDHSIFEAFSKVVQKLIPQLPTLENLLNIFISNSGIEKAFLFDVVSKIYIATDSTPVDMQTYELCCDMIDVVIDISCIYGLKEDGAGTPYDKESTAIIKLNNTTVLYLKEVTKFLALVCFVREESFERKGLIDYNFHCFRKAIHEVFEVRMKVVKSRKVQNRLQKKKRATPNGTPRVLL”, the “soluble on expression in E. coli” value was “soluble”. With “MGHHHHHHSHMEGTYITSEHSYQKPQSFGQDCKSLADPGSSDDDDVSSLEEEQEFHMRSKNSLQYSAKEHGMPEKNPAEGNTVFVYNDKKGTEDPGDSHLQWQLNLLTHIENVQNEVTSRMDLIEKEVDVLESWLDFTGELEPPDPLARLPQLKRHIKQLLIDMGKVQQIATLCSV” the “soluble on expression in E. coli” value was “not soluble”. For “MGHHHHHHSHMESVALYSFQATESDELAFNKGDTLKILNMEDDQNWYKAELRGVEGFIPKNYIRVKPHPWYSGRISRQLAEEILMKRNHLGAFLIRESESSPGEFSVSVNYGDQVQHFKVLREASGKYFLWEEKFNSLNELVDFYRTTTIAKKRQIFLRDEEPLLKSPGACFAQAQFDFSAQDPSQLSFRRGDIIEVLERPDPHWWRGRSCGRVGFFPRSYVQPVHL”, the “soluble on expression in E. coli” value was “not soluble”. For “MGHHHHHHSHMFGGDTLYELRCSLQLAETEREGGFSPHISPFTAVNDLGHLLGRAGFNTLTVDTDEIQVNYPGMFELMEDLQGMGESNCAWNRKALLHRDTMLAAAAVYREMYRNEDGSVPATYQIYYMIGWKYHESQARPAERGSATVSFGELGKINNLMPPGKKSQ”, the “soluble on expression in E. coli” value was “not soluble”. For “MGHHHHHHSHMFLVLKKKHICHRNLVNILQLNMYVCCLDKCNHCKHLYDLGFCFYFEMGAFLFTSSLKTKNCFCKEMRFFLNNKKCLADSLLNKNLPNFLIDYFKPFVTWYSFASQFRFRVITFPLFLRKMKKVILLSEGERHSFIFFFFFFFFL”, the “soluble on expression in E. coli” value was “not soluble”. In the case of “MGHHHHHHSHMGAGLSADRRRSLCAREFRKLGFSNSNPAQDLERVPPGLLALDNMLYFSRNAPSAYSRFVLENSSREDKHECPFARGSIQLTVLLCELLRVGEPCSETAQDFSPMFFGQDQSFHELFCVGIQLLNKTWKEMRATQEDFDKVMQVVREQLARTLALKPTSLELFRTKVNALTYGEVLR”, the “soluble on expression in E. coli” value is reported as “soluble”. With “MGHHHHHHSHMGHLDKEGLCTQGSSFSWLLRVLNDGISLGLTPCLWDMYLLEGEQMLMLITSIAFKVQRSLYEETNKETWGPATPRALKGTGRARPICESLHSSLQALTASESSRGPSLLQTPPRVPGQQALSRGDKGISVSLSLPSLPSRRGRCGRIIG” the “soluble on expression in E. coli” value was “not soluble”. For “MGHHHHHHSHMGLWQQISNCMPDLALCSDIKFFLRCLERWLNRNSSALQLPARSTQKEIISAFPTKVPSSSHWDWLDSGCSPQKASRSRVGCRLTREAQGVRELPPLAKGSCEGLCREERGIPAQILCFPHGLCNPQTRRFPWVPAPPGPWVSSKKLGSHLGRH”, the “soluble on expression in E. coli” value was “not soluble”. With “MGHHHHHHSHMHGWTWSVPKFMKRMKVPDYKDKAVFGVPLIVHVQRTGQPLPQSIQQALRYLRSNCLDQVGLFRKSGVKSRIHALRQMNENFPENVNYEDQSAYDVADMVKQFFRDLPEPLFTNKLSETFLHIYQYVSKEQRLQAVQAAILLLADENREVLQTLLCFLNDVVNLVEENQMTPMNLAVCLAPSLFHLNLL” the “soluble on expression in E. coli” value was “not soluble”. For “MGHHHHHHSHMIGPIIDKLEKVAVRGGDKKLKPEYDIMCKVKSWVIDQKKPVRFYHDWNDKEIEVLNKHLFLTSKPMVYLVNLSEKDYIRKKNKWLIKIKEWVDKYDPGALVIPFSGALELKLQELSAEERQKYLEANMTQSALPKIIKAGFAALQLEYFFTAGPDEVRAWTIRKGTKAPQAAGKIHTDFEKGFIMAEVMKYEDFKEEGSENAVKAAGKYRQQGRNYIVEDGDIIFFKFNTPRQPKKK”, the “soluble on expression in E. coli” value was “not soluble”. With “MGHHHHHHSHMIGSGLSDLFDLTSGVGTLSGSYVAPKAVWLPAMKAKGLEISGTFTRQVGSISMDLQLTNKALQVMTDFAIQFNRNSFGLAPAAPLQVHAPLSPNQTVEISLPLSTVGSVMKMEPLNNLQVAVKNNIDVFYFSTLYPLHILFVEDGKMDRQMFLATWKDIPNENEAQFQIRDCPLNAEAASSKLQSSNIFTVAKRNVEGQDMLYQSLKLTNGIWVLAELRIQPGNPSCTDLELSLKCRAPEVSQHVYQAYETILKN” the “soluble on expression in E. coli” value was “soluble”. With “MGHHHHHHSHMKDSEKHIEVEVRKFLALKQTPDFHTVIGDTVTGLLERCKAEPSFYPRNCLMQLIQTHVLSYSLCPDLMEIALKKKDVQLLQLCLQQFPDIPESVTCACLKIFLSIGDDSLQETDVNMESVFDYSINSVHDEKMEEQTEILQNGFNPEEDKCNNCDQELNKKPQDETKESTSCPVVQKRAALLNAILHSAYSETFLLPHLKDIPAQHITLFLKYLYFLYLKCSENATMTLPGIHPPTLNQIMDWICLLLDANFTVVVMMPEAKRLLINLYKLVKSQISVYSELNKIEVSFRELQKLNQEKNNRGLYSIEVLELF” the “soluble on expression in E. coli” value was “not soluble”. In the case of “MGHHHHHHSHMKGFTATLFLWTLIFPSCSGGGGGKAWPTHVVCSDSGLEVLYQSCDPLQDFGFSVEKCSKQLKSNINIRFGIILREDIKELFLDLALMSQGSSVLNFSYPICEAALPKFSFCGRRKGEQIYYAGPVNNPEFTIPQGEYQVLLELYTEKRSTVACANATIMCS”, the “soluble on expression in E. coli” value is reported as “not soluble”. With “MGHHHHHHSHMKNSSSVSNTLTNGCVINGHLDFPSTTPLSGMESRNGQCLTGTNGISSGLAPGQPFPSSQGSLCISGTEEPEKTLRANPELCGSLHLNGSPSSCIASRPSWVEDIGDNLYYGHYHGFGDTAESIPELNSVVEHSKSVKVQERYDSAVLGTMHLHHGS” the “soluble on expression in E. coli” value was “soluble”. In the case of “MGHHHHHHSHMKPVKHLLTTSNKSANVPALTTKKGLHNLPLSPELKEKHNAKLIHDKIEPMVLRSPPTGESILRYALPIPSSKTKNLLPEDEMIGKIIKHLKMVVSTLEETYGHCDQNGEEPFVKHEHEELSLSVGDDMNSFLTYCSQFAAQLEEALKEEQNILESLFKWFQWQVNQMEEISKDQTLLQAEPPKPDKTVILNIAEIVRLVQRFEELKNRLKQRSKSSVKVMLSKTMDKENRPEAVKSCEALAQKIEEFLEAHSTDEFKDVSATEPQL”, the “soluble on expression in E. coli” value is reported as “soluble”. For “MGHHHHHHSHMLSPERLALPDYEYLAQRHVLTYMEDAVCQLLENREDISQYGIARFFTEYFNSVCQGTHILFREFSFVQATPHNRVSFLRAFWRCFRTVGKNGDLLTMKEYHCLLQLLCPDFPLELTQKAARIVLMDDAMDCLMSFSDFLFAFQIQFYYSEFLDSVAAIYEDLLSGKNPNTVIVPTSSSGQHRQRPALGGAGTLEGVEASLFYQCLENLCDRHKYSCPPPALVKEALSNVQRLTFYGFLMALSKHRGINQALGALPDKGDLMHDPAMDEELERLLAQVPGLVNSVTASPEASCLPSRTPPRVGSPWRPLHHSRKVDGESDGSTEETDESET”, the “soluble on expression in E. coli” value was “not soluble”. For “MGHHHHHHSHMLSSNGASKVANSEAMILDKNLESVNSPIEKSSVNYEPSNPSEKGSKKINLSSDQNKSVSESNNDDVMLISVESPNLTTPTTSNPTDTRKITSGNSSNSPNAEVMAVQKKLDSIIDLTKEGLSNCNTESPVSPLESHSKAASNSKETTPLAQNAVQVPESFEHLPPLPEPPAPLPELVDKTRDTLPPQKPELKVKRVFRPNGIALTWNITKINPKCAPVESYHLFLCHENSNNKLIWKKIGEIKALPLPMACTLSQFLASNRYYFTVQSKDIFGRYGPFCDIKSIPGFSENLT”, the “soluble on expression in E. coli” value was “soluble”. With “MGHHHHHHSHMPYLVIEHLEDISEWLLLEYKHVAQWWGDKLIFTNVKPKERKILAEIGSVVTESITKLPVDRSKVIVLDLQAKEELKPEDISEDTIIVVGGILGDAIPRGRTRKLITSKMEGVKVRHIGRPQFSIDGASIIAKLISEGKRLEEIEYEENPTIKLDEFSEITFHYAVPKLNGKLLLTPGLIELQKKELGYLEEDEDDGLIEFFEGKGEL” the “soluble on expression in E. coli” value was “soluble”. With “MGHHHHHHSHMQTDIHDEPVNLGFGVQFEPDDLYRLRSQFLPLGKIGGKPSWLNPKNLPKSADLLCNVCEKPLCFLMQVSANGGINDPPHAFHRSLFLFVCRNPSCSRTNDAANLKAFRCQLPRANDYYSFDGPMDPDLDGDVADPRAPADGPGLCRICGCSAAKKCAKCQVARYCSQAHQVIDWPAHKLECAKAATDGSITDEPKNPRNAFCFKEFGVEIDQEYMPANLFDGLSDDEGDEEEEEGNDEDETEEEKKARIREFEKFVKENKGKNADMTKEDLDEATAEQPKDIDFDKFNRLVNLQPDQIIRYKRYGQPLRATGLSELPEVVEPCELCGAPRRFEMQLMPHLLSLIDVDAIGQSIDWASVYVYTCSASCQIADDGYAKEFVAKQDFL” the “soluble on expression in E. coli” value was “soluble”. In the case of “MGHHHHHHSHMRISPGQINQVRPKLPLLKILHAAGAQGEMFTVKEVMHYLGQYIMVKQLYDQQEQHMVYCGGDLLGELLGRQSFSVKDPSPLYDMLRKNLVTLATATT”, the “soluble on expression in E. coli” value is reported as “not soluble”. For “MGHHHHHHSHMSLSSSACPLLLTLRDHLLQLEQQLCFSLFKIFWQMLVEKLDVYIYQEIILANHFNEGGAAQLQFDMTRNLFPLFSHYCKRPENYFKHIKEACIVLNLNVGSALLLKDVLQSASGQLPATAALNEVGIYKLAQQDVEILLNLRTNWPNTGK”, the “soluble on expression in E. coli” value was “not soluble”. For “MGHHHHHHSHMSPDQFLLTVSALQHARNSGEFAYPCRPQTEITDVWGPSISYPRKVLNFKGKSIQRAVDRLRLSNPPIDVKRTSIPLEIQKLQPNLKISLHSPRAQSTIPEPMIIRSRFSGSLKGGDQVTSSIERAVCSTGPLTSMQVIKPNRMLAPQVGTATLSLKKERPRIYTALDPFRVNAEFVLLTVKEEKEHQEAKMKEYQARESTGVVDPGKASKAAWIRKIKGLPIDNFTKQGKTAAPELGQNVFI”, the “soluble on expression in E. coli” value was “soluble”.

From the DeepSol protein solubility set
